Numbering of substitutions follows the chain as printed. Names and notes keep the numbering of the source. Values joined by “and” are separate entries in the source; they are usually repeats but may differ in a detail not shown here. Equal values may be shown once.
Tests used:
[1] = biological target: T1, human GITR on cells (human, UniProt Q9Y5U5 26-241); test: cell-based or functional assay
T1 sequence (looked up): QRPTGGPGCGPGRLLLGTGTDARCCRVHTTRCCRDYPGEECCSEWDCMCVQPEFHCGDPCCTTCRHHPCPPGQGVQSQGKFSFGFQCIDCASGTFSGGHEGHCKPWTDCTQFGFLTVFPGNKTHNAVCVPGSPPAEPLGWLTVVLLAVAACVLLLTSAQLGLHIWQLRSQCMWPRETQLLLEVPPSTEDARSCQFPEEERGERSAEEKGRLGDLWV

[2] = biological target: T2, hCD40-Fc (human, UniProt P25942 21-193); test: SPR, hCD40-Fc immobilized, dAb-Fc analyte, avidity
T2 construct: Immobilized on the sensor chip; not shown: Fc part of hCD40-Fc not described

[3] = biological target: T3, purified human-CD40 monomer (human, UniProt P25942 21-193, limits assumed); test: SPR, dAb-Fc on protein A, hCD40monomer analyte; second set
T3 construct: Soluble analyte; also called hCD40monomer

[4] = biological target: T4, hCD73-his (human, UniProt P21589 26-546); test: DLS, target:mAb 1:1, 4 uM + 4 uM; unit from the text
T4 construct: range 26-546; also called full length extracellular domain of human-CD73
T4 sequence (looked up): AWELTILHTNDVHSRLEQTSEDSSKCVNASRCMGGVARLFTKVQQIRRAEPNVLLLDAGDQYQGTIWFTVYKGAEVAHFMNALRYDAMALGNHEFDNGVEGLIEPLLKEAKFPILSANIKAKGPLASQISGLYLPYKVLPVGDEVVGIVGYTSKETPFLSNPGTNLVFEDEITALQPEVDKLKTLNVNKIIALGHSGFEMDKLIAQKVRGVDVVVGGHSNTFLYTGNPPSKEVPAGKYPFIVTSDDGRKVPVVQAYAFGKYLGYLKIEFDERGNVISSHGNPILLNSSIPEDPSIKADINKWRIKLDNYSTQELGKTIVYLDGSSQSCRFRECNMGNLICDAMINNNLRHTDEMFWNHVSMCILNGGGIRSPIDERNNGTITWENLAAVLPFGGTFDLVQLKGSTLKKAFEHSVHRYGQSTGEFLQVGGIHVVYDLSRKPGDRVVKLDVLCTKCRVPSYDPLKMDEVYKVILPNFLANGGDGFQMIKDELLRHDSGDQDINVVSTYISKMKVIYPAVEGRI
Description: (§1) The structure and oligomeric state of CD73/antibody complexes in solution were examined by SEC-MALS and DLS.
(§2) Dynamic light scattering (DLS) studies were performed on a Wyatt DynaPro® plate reader in 384 well plates at 25° C. Experimental parameters were 20 acquisitions of 5 s each per measurement, and measurements were recorded in quadruplicate, with the average and standard deviation reported. Intensity autocorrelation functions were fitted using the “Regularization” algorithm in the Dynamics® software (Wyatt Technologies®).

[5] = biological target: T5, N-hCD73-his (human, UniProt P21589 26-336, limits assumed); test: DLS, target:mAb 2:1, 8 uM + 4 uM; unit from the text
T5 construct: monomeric in solution by SEC-MALS; also called N-terminal domain of hCD73
T5 sequence (looked up): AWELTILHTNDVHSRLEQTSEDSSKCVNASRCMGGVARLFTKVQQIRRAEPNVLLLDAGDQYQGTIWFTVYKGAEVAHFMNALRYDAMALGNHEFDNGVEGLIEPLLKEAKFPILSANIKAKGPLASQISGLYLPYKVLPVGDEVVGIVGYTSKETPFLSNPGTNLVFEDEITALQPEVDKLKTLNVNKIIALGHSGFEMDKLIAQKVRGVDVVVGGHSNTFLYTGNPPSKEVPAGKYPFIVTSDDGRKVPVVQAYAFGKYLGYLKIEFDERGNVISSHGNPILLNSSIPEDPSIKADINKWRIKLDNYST
Description: as §1, §2

[6] = biological target: T4, hCD73-his; test: DLS, target:mAb 1:1, 2.5 uM + 2.5 uM; unit from the text
Description: as §1, §2

[7] = biological target: T6, human CD73 on cells (human, UniProt P21589 27-549); test: cell-based or functional assay
T6 sequence (looked up): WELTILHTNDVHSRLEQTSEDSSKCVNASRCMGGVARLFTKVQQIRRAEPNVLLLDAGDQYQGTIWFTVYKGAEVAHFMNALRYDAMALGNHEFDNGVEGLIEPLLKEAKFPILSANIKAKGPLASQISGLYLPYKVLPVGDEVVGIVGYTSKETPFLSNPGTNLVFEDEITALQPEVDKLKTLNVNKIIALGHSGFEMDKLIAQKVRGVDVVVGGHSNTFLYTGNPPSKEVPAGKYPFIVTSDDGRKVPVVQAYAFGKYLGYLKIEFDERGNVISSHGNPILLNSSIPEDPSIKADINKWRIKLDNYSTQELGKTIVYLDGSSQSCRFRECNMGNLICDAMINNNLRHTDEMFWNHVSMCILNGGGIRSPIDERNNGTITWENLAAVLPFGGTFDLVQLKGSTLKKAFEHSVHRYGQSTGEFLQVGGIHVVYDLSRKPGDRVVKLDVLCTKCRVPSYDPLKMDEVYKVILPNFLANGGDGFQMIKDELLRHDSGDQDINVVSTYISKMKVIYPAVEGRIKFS

[8] = biological target: T4, hCD73-his; test: SEC-MALS, target:mAb 1:1, 4 uM + 4 uM
Description: as §1
(§3) The oligomeric state of CD73/antibody complexes were examined by size-exclusion chromatography coupled to an in-line multi-angle light scattering detector (SEC-MALS). Isocratic separations were performed on a Shodex PROTEIN KW-803 column connected to an Prominence Shimadzu UFLC in buffer containing 200 mM K₂HPO₄, 150 mM NaCl, pH 6.8, containing 0.02% Na azide (0.1 μm filtered) running at 0.5 mL/min. Samples were injected onto the column using a SIL-20AC Prominence Shimadzu® autosampler, and data were obtained from three online detectors connected in series: a Prominence SPD-20AD diode array UV/vis spectrophotometer followed by a Wyatt miniDAWN™ TREOS Multi-Angle Light Scattering Detector then a Wyatt Optilab T-rEX Refractive Index Detector® instrument. Data were collected and analyzed using Astra® (Wyatt) and Labsolutions® (Shimadzu) software.

[9] = biological target: T5, N-hCD73-his; test: SPR, mAb captured on protein A
Description: The affinity of the antibodies for human CD73 was measured to determine whether the change of the constant region affects them. The affinities were determined by Surface Plasmon Resonance (SPR) as follows. […] For these experiments, protein A (Pierce) was immobilized to a density of 3000-4000 RU on flow cells 1˜4 of a CMS sensor chip (GE Healthcare) using standard ethyl(dimethylaminopropyl) carbodiimide (EDC)/N-hydroxysuccinimide (NHS) chemistry, with ethanolamine blocking, in a running buffer of 0.01 M HEPES pH 7.4, 0.15 M NaCl, 3 mM EDTA, 0.005% v/v tween 20. […] The running buffer for the kinetic experiments was 10 mM sodium phosphate, 130 mM sodium chloride, 0.05% tween 20, pH 7.1. The surfaces were regenerated after each cycle using two 30 s pulses of 10 mM glycine pH 1.5 at a flow rate of 30 μl/min. Sensogram data was double-referenced and then fitted to a 1:1 Langmuir model using Biacore® T100 evaluation software v2.0.4, to determine the association rate constant (ka), the dissociation rate constant (kd), and the equilibrium dissociation constant (KD).

[10] = biological target: T5, N-hCD73-his; test: SEC-MALS, target:mAb 2:1, 8 uM + 4 uM
Description: as §1, §3

[11] = biological target: T4, hCD73-his; test: SEC-MALS, target:mAb 1:1, 2.5 uM + 2.5 uM
Description: as §1, §3

[12] = biological target: T6, human CD73 on cells; test: cell-based or functional assay; remark: listed apart in the source

T3 sequence (P25942 21-193 limits assumed): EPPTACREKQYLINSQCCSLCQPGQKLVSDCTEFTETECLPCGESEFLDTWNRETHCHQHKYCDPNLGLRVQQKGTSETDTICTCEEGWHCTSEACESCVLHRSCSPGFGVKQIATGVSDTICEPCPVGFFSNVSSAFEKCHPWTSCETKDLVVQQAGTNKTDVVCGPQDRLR
T2 sequence (P25942 21-193): as the sequence (P25942 21-193 limits assumed) above

B1: anti-GITR-IgG2 (antibody)
heavy: QVQLVESGGGVVQPGRSLRLSCAASGFTFSSYGMHWVRQAPGKGLEWVAVIWYEGSNKYYADSVKGRFTISRDNSKNTLYLQMNSLRAEDTAVYYCARGGSMVRGDYYYGMDVWGQGTTVTVSSASTKGPSVFPLAPCSRSTSESTAALGCLVKDYFPEPVTVSWNSGALTSGVHTFPAVLQSSGLYSLSSVVTVPSSNFGTQTYTCNVDHKPSNTKVDKTVERKCCVECPPCPAPPVAGPSVFLFPPKPKDTLMISRTPEVTCVVVDVSHEDPEVQFNWYVDGVEVHNAKTKPREEQFNSTFRVVSVLTVVHQDWLNGKEYKCKVSNKGLPAPIEKTISKTKGQPREPQVYTLPPSREEMTKNQVSLTCLVKGFYPSDIAVEWESNGQPENNYKTTPPMLDSDGSFFLYSKLTVDKSRWQQGNVFSCSVMHEALHNHYTQKSLSLSPGK
light: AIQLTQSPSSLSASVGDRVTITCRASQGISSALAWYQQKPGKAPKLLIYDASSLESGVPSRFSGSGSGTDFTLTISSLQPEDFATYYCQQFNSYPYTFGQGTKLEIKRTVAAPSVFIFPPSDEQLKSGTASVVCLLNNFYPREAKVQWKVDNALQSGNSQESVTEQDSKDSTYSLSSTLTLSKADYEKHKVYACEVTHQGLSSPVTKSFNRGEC
NFKB signaling EC50 [1]: ~10 nM

B2: 3h56-269-IgG1.3f (Fc fusion)
chain: EVQLLESGGGLVQPGGSLRLSCAASGFTFRDYEMWWVRQAPGKGLERVSAINPQGTRTYYADSVKGRFTISRDNSKNTLYLQMNSLRAEDTAVYYCAKLPFRFSDRGQGTLVTVSSASTEPKSCDKTHTCPPCPAPEAEGAPSVFLFPPKPKDTLMISRTPEVTCVVVDVSHEDPEVKFNWYVDGVEVHNAKTKPREEQYNSTYRVVSVLTVLHQDWLNGKEYKCKVSNKALPAPIEKTISKAKGQPREPQVYTLPPSREEMTKNQVSLTCLVKGFYPSDIAVEWESNGQPENNYKTTPPVLDSDGSFFLYSKLTVDKSRWQQGNVFSCSVMHEALHNHYTQKSLSLSPGK
notes: dAb-Fc fusion protein
KDapparent [2]: < 1 nM | Kd [3]: 9.8 nM | koff [3]: 0.00011 s⁻¹ | kon [3]: 11000 M⁻¹ s⁻¹

B3: 3h56-269-IgG1.1f (Fc fusion)
chain: B2 chain with A234S, P235S
notes: dAb-Fc fusion protein
KDapparent [2]: < 1 nM

B4: CD73.10-IgG2-C219S (antibody)
heavy: QVQLVESGGGVVQPGRSLRLSCAASGFTFSNYGMHWVRQAPGKGLEWVAVIWYDESNKYYPDSVKGRFTISRDNSKNTLYLQMNSLRAEDTAVYYCARGGSSWYPDSFDIWGQGTMVTVSSASTKGPSVFPLAPCSRSTSESTAALGCLVKDYFPEPVTVSWNSGALTSGVHTFPAVLQSSGLYSLSSVVTVPSSNFGTQTYTCNVDHKPSNTKVDKTVERKSCVECPPCPAPPVAGPSVFLFPPKPKDTLMISRTPEVTCVVVDVSHEDPEVQFNWYVDGVEVHNAKTKPREEQFNSTFRVVSVLTVVHQDWLNGKEYKCKVSNKGLPAPIEKTISKTKGQPREPQVYTLPPSREEMTKNQVSLTCLVKGFYPSDIAVEWESNGQPENNYKTTPPMLDSDGSFFLYSKLTVDKSRWQQGNVFSCSVMHEALHNHYTQKSLSLSPG
light: not shown
notes: also called CD73.10-IgG2CS; CD73.10-Vh-hHC-IgG2-C219S
Rh [4]: 2.9 nm | Rh [5]: 6.5 nm | Rh [6]: 23.9 nm | % internalization, Calu6 cells [7]: 91% | % internalization, H228 cells [7]: 93% | % internalization, H2030 cells [7]: 85% | % internalization, HCC15 cells [7]: 91% | internalization T1/2, Calu6 cells [7]: 3 min | internalization T1/2, H228 cells [7]: 9.7 min | internalization T1/2, H2030 cells [7]: 3.3 min | internalization T1/2, HCC15 cells [7]: 2.6 min | MW Peak 2 [8]: 3400 kDa | Kd [9]: 6.2 nM and 8.3 nM | koff [9]: 0.0014 s⁻¹ and 0.0018 s⁻¹ | kon [9]: 220000 M⁻¹ s⁻¹ | MW Peak 1 [10]: 210 kDa | MW Peak 2 [10]: 150 kDa | MW Peak 1 [11]: 2200 kDa | MW Peak 2 [11]: 310 kDa | internalization EC50, Calu6 cells, 2 h [12]: 0.67 nM | internalization Ymax (% of 100 nM 11F11), Calu6 cells [12]: 99%

From patent publication US20240141059A1 (Bristol-Myers Squibb, published 2024)
